Test results published in PMC2886353 (The Journal of Cell Biology, 2010).

Target: the molecule itself
Test: single-molecule step-wise photobleaching

| Protein | stoichiometry N |
| --- | --- |
| KIF17 (1-795)-3xmCit (domain or fragment, human, UniProt Q9P2E2-1 1-795, looked up) MASEAVKVVVRCRPMNQRERELRCQPVVTVDCARAQCCIQNPGAADEPPKQFTFDGAYHVDHVTEQIYNEIAYPLVEGVTEGYNGTIFAYGQTGSGKSFTMQGLPDPPSQRGIIPRAFEHVFESVQCAENTKFLVRASYLEIYNEDVRDLLGADTKQKLELKEHPEKGVYVKGLSMHTVHSVAQCEHIMETGWKNRSVGYTLMNKDSSRSHSIFTISIEMSAVDERGKDHLRAGKLNLVDLAGSERQSKTGATGERLKEATKINLSLSALGNVISALVDGRCKHVPYRDSKLTRLLQDSLGGNTKTLMVACLSPADNNYDETLSTLRYANRAKNIRNKPRINEDPKDALLREYQEEIKKLKAILTQQMSPSSLSALLSRQVPPDPVQVEEKLLPQPVIQHDVEAEKQLIREEYEERLARLKADYKAEQESRARLEEDITAMRNSYDVRLSTLEENLRKETEAVLQVGVLYKAEVMSRAEFASSAEYPPAFQYETVVKPKVFSTTDTLPSDDVSKTQVSSRFAELPKVEPSKSEISLGSSESSSLEETSVSEAFPGPEEPSNVEVSMPTEESRSRYFLDECLGQEAAGHLLGEQNYLPQEEPQEVPLQGLLGLQDPFAEVEAKLARLSSTVARTDAPQADVPKVPVQVPAPTDLLEPSDARPEAEAADDFPPRPEVDLASEVALEVVRTAEPGVWLEAQAPVALVAQPEPLPATAGVKRESVGMEVAVLTDDPLPVVDQQQVLARLQLLEQQVVGGEQAKNKDLKEKHKRRKRYADERRKQLVAALQNSDEDSGDW | 2 |
| KIF17 (1-738)-3xmCit (domain or fragment, human, UniProt Q9P2E2-1 1-738, looked up) MASEAVKVVVRCRPMNQRERELRCQPVVTVDCARAQCCIQNPGAADEPPKQFTFDGAYHVDHVTEQIYNEIAYPLVEGVTEGYNGTIFAYGQTGSGKSFTMQGLPDPPSQRGIIPRAFEHVFESVQCAENTKFLVRASYLEIYNEDVRDLLGADTKQKLELKEHPEKGVYVKGLSMHTVHSVAQCEHIMETGWKNRSVGYTLMNKDSSRSHSIFTISIEMSAVDERGKDHLRAGKLNLVDLAGSERQSKTGATGERLKEATKINLSLSALGNVISALVDGRCKHVPYRDSKLTRLLQDSLGGNTKTLMVACLSPADNNYDETLSTLRYANRAKNIRNKPRINEDPKDALLREYQEEIKKLKAILTQQMSPSSLSALLSRQVPPDPVQVEEKLLPQPVIQHDVEAEKQLIREEYEERLARLKADYKAEQESRARLEEDITAMRNSYDVRLSTLEENLRKETEAVLQVGVLYKAEVMSRAEFASSAEYPPAFQYETVVKPKVFSTTDTLPSDDVSKTQVSSRFAELPKVEPSKSEISLGSSESSSLEETSVSEAFPGPEEPSNVEVSMPTEESRSRYFLDECLGQEAAGHLLGEQNYLPQEEPQEVPLQGLLGLQDPFAEVEAKLARLSSTVARTDAPQADVPKVPVQVPAPTDLLEPSDARPEAEAADDFPPRPEVDLASEVALEVVRTAEPGVWLEAQAPVALVAQPEPLPATAGVKRESVGMEVAVLTDDPLPVVDQ | 2 |
| KIF17 (1-369)-3xmCit (domain or fragment, human, UniProt Q9P2E2-1 1-369, looked up) MASEAVKVVVRCRPMNQRERELRCQPVVTVDCARAQCCIQNPGAADEPPKQFTFDGAYHVDHVTEQIYNEIAYPLVEGVTEGYNGTIFAYGQTGSGKSFTMQGLPDPPSQRGIIPRAFEHVFESVQCAENTKFLVRASYLEIYNEDVRDLLGADTKQKLELKEHPEKGVYVKGLSMHTVHSVAQCEHIMETGWKNRSVGYTLMNKDSSRSHSIFTISIEMSAVDERGKDHLRAGKLNLVDLAGSERQSKTGATGERLKEATKINLSLSALGNVISALVDGRCKHVPYRDSKLTRLLQDSLGGNTKTLMVACLSPADNNYDETLSTLRYANRAKNIRNKPRINEDPKDALLREYQEEIKKLKAILTQQMS | 2 |
| KIF17 (1-490)-3xmCit (domain or fragment, human, UniProt Q9P2E2-1 1-490, looked up) MASEAVKVVVRCRPMNQRERELRCQPVVTVDCARAQCCIQNPGAADEPPKQFTFDGAYHVDHVTEQIYNEIAYPLVEGVTEGYNGTIFAYGQTGSGKSFTMQGLPDPPSQRGIIPRAFEHVFESVQCAENTKFLVRASYLEIYNEDVRDLLGADTKQKLELKEHPEKGVYVKGLSMHTVHSVAQCEHIMETGWKNRSVGYTLMNKDSSRSHSIFTISIEMSAVDERGKDHLRAGKLNLVDLAGSERQSKTGATGERLKEATKINLSLSALGNVISALVDGRCKHVPYRDSKLTRLLQDSLGGNTKTLMVACLSPADNNYDETLSTLRYANRAKNIRNKPRINEDPKDALLREYQEEIKKLKAILTQQMSPSSLSALLSRQVPPDPVQVEEKLLPQPVIQHDVEAEKQLIREEYEERLARLKADYKAEQESRARLEEDITAMRNSYDVRLSTLEENLRKETEAVLQVGVLYKAEVMSRAEFASSAEYPPAF | 2 |
| KIF17 (1-846)-3xmCit (domain or fragment, human, UniProt Q9P2E2-1 1-846, looked up) MASEAVKVVVRCRPMNQRERELRCQPVVTVDCARAQCCIQNPGAADEPPKQFTFDGAYHVDHVTEQIYNEIAYPLVEGVTEGYNGTIFAYGQTGSGKSFTMQGLPDPPSQRGIIPRAFEHVFESVQCAENTKFLVRASYLEIYNEDVRDLLGADTKQKLELKEHPEKGVYVKGLSMHTVHSVAQCEHIMETGWKNRSVGYTLMNKDSSRSHSIFTISIEMSAVDERGKDHLRAGKLNLVDLAGSERQSKTGATGERLKEATKINLSLSALGNVISALVDGRCKHVPYRDSKLTRLLQDSLGGNTKTLMVACLSPADNNYDETLSTLRYANRAKNIRNKPRINEDPKDALLREYQEEIKKLKAILTQQMSPSSLSALLSRQVPPDPVQVEEKLLPQPVIQHDVEAEKQLIREEYEERLARLKADYKAEQESRARLEEDITAMRNSYDVRLSTLEENLRKETEAVLQVGVLYKAEVMSRAEFASSAEYPPAFQYETVVKPKVFSTTDTLPSDDVSKTQVSSRFAELPKVEPSKSEISLGSSESSSLEETSVSEAFPGPEEPSNVEVSMPTEESRSRYFLDECLGQEAAGHLLGEQNYLPQEEPQEVPLQGLLGLQDPFAEVEAKLARLSSTVARTDAPQADVPKVPVQVPAPTDLLEPSDARPEAEAADDFPPRPEVDLASEVALEVVRTAEPGVWLEAQAPVALVAQPEPLPATAGVKRESVGMEVAVLTDDPLPVVDQQQVLARLQLLEQQVVGGEQAKNKDLKEKHKRRKRYADERRKQLVAALQNSDEDSGDWVLLNVYDSIQEEVRAKSKLLEKMQRKLRAAEVEIKDLQSEFQLEKIDYLAT | 2 |
